A short description of this series: self-splicing fitness, log relative to wild type (ln ratio); higher = more splicing; Tetrahymena group I intron in knt gene, E. coli kanamycin selection, DiMSum; sequences stand for … in CUCUCU…GGAGGGAAAAGUUAUCAGGCAUGCACCUGGUAGCUAGUCUUUAAACCAAUAGAUUGCAUCGGUUUAAAAGGCAAGACCGUCAAAUUGCGGGAAAGGGGUCAACAGCCGUUCAGUACCAAGUCUCAGGGGAAACUUUGAGAUGGCCUUGCAAAGGGUAUGGUAAUAAGCUGACGGACAUGGUCCUAACCACGCAGCCAAGUCCUAAGUCAACAGAUCUUCUGUUGAUAUGGAUGCAGUUCACAGACUAAAUGUCGGUCGGGGAAGAUGUAUUCUUCUCAUAAGAUAUAGUCGGACCUCUCCUUAAUGGGAGCUAGCGGAUGAAGUGAUGCAACACUGGAGCCGCUGGGAACUAAUUUGUAUGCGAAAGUAUAUUGAUUAGUUUUGGAGUACUCGUGGUCG
The method in brief: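 Fitness was computed with DiMSum as the error-weighted combination of replicate fold changes, kanamycin versus none, each normalised to wild type. The library randomised all eight intron nucleotides of the P1ex region, with the intron placed in the knt kanamycin-resistance gene on pET-22b(+) in E. coli BL21(DE3). Six replicate transformations were grown overnight at 37°C or 30°C on LB agar with or without 25 μg/mL kanamycin, plus 100 μg/mL carbenicillin, 50 μM IPTG and 0.2% rhamnose. Pooled colonies were amplicon-sequenced on an Illumina HiSeq 2500.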

± gives the uncertainty stated by the source.

Consider ACUCAGCAAUAUUACGGGUU, for which the “self-splicing fitness (ln)” value was -3.64 ± 0.17 (30 °C) and -2.37 ± 0.19 (37 °C).
As to ACUCAGCAAUAUUACGGUGU, the “self-splicing fitness (ln)” value is, setting by setting: (30 °C) -2.56 ± 0.085; (37 °C) -1.34 ± 0.079.
For ACUCAGCAAUAUUACGGUUG the same measures were -4.32 ± 0.17 and -2.77 ± 0.18.
For ACUCAGCAAUAUUACGUAUA, in that order: -2.19 ± 0.11 and -1.11 ± 0.1.
Take ACUCAGCAAUAUUACGUCAC: the “self-splicing fitness (ln)” value by setting is: (30 °C) -3.57 ± 0.15; (37 °C) -1.97 ± 0.15.
Regarding ACUCAGCAAUAUUACGUCAG, the “self-splicing fitness (ln)” value (30 °C) is -2.31 ± 0.1 and the “self-splicing fitness (ln)” value (37 °C) was -2.68 ± 0.17.
For ACUCAGCAAUAUUACGUGGC the same measures were -3.04 ± 0.14 and -2.9 ± 0.17.
For ACUCAGCAAUAUUACGUGGG the same measures were -3.7 ± 0.18 and -2.9 ± 0.2.
For ACUCAGCAAUAUUACGUGUC the same measures were -3.74 ± 0.16 and -2.21 ± 0.17.
On to ACUCAGCAAUAUUACGUGUU, for which the “self-splicing fitness (ln)” value by setting is: (30 °C) -3.14 ± 0.1; (37 °C) -1.28 ± 0.088.
For ACUGAGCAAUAUUACGACAA the same measures were -2.96 ± 0.2 and -2.4 ± 0.23.
For ACUGAGCAAUAUUACGACGA the same measures were -1.3 ± 0.13 and -0.569 ± 0.12.
For the sequence ACUGAGCAAUAUUACGACUG, the “self-splicing fitness (ln)” value reads like this: (30 °C) -3.2 ± 0.34; (37 °C) -1.68 ± 0.23.
For ACUGAGCAAUAUUACGACUU, the “self-splicing fitness (ln)” value is -1.4 ± 0.11 (30 °C) and -0.511 ± 0.14 (37 °C).
For ACUGAGCAAUAUUACGAUUA, in that order: -3.39 ± 0.3 and -1.78 ± 0.18.
Turning to ACUGAGCAAUAUUACGCAAA, the “self-splicing fitness (ln)” value runs as follows: (30 °C) -2.29 ± 0.38; (37 °C) -1.93 ± 0.34.
For ACUGAGCAAUAUUACGCACU the same measures were -0.721 ± 0.13 and -0.386 ± 0.17.
With ACUGAGCAAUAUUACGCCCC, for the setting “30 °C”, the “self-splicing fitness (ln)” value was -2.6 ± 0.34.
ACUGAGCAAUAUUACGCCGA: the “self-splicing fitness (ln)” value reads like this: (30 °C) -3.61 ± 0.47; (37 °C) -1.33 ± 0.23.
For ACUGAGCAAUAUUACGCCGG, the “self-splicing fitness (ln)” value (30 °C) is -2.48 ± 0.3.
On to ACUGAGCAAUAUUACGCGCG, for which the “self-splicing fitness (ln)” value was -1.14 ± 0.11 (30 °C) and -0.367 ± 0.12 (37 °C).
ACUGAGCAAUAUUACGCUAC: the “self-splicing fitness (ln)” value (30 °C) was -3.24 ± 0.24.
Consider ACUGAGCAAUAUUACGCUGC, for which the “self-splicing fitness (ln)” value (37 °C) was -1.98 ± 0.33.
As for ACUGAGCAAUAUUACGCUUG, the “self-splicing fitness (ln)” value is -3.28 ± 0.3 (30 °C) and -2.75 ± 0.31 (37 °C).
For ACUGAGCAAUAUUACGGAAU, in that order: -3.39 ± 0.35 and -1.87 ± 0.23.
Turning to ACUGAGCAAUAUUACGGAUC, the “self-splicing fitness (ln)” value (37 °C) is -1.91 ± 0.35.
On to ACUGAGCAAUAUUACGGCAU, for which the “self-splicing fitness (ln)” value was -0.643 ± 0.071 (30 °C) and -0.708 ± 0.1 (37 °C).
For ACUGAGCAAUAUUACGGCUG, in that order: -1.18 ± 0.16 and -0.804 ± 0.19.
For ACUGAGCAAUAUUACGGGAA, in that order: -2.94 ± 0.17 and -2.48 ± 0.24.
For ACUGAGCAAUAUUACGGGAU the same measures were -3.03 ± 0.17 and -2.18 ± 0.22.
With ACUGAGCAAUAUUACGGUGC, the “self-splicing fitness (ln)” value by setting is: (30 °C) -3.32 ± 0.19; (37 °C) -1.9 ± 0.18.
For ACUGAGCAAUAUUACGGUGU the same measures were -3.14 ± 0.13 and -1.41 ± 0.1.
In the case of ACUGAGCAAUAUUACGUAUA, the “self-splicing fitness (ln)” value is -2.58 ± 0.2 (30 °C) and -1.97 ± 0.25 (37 °C).
For ACUGAGCAAUAUUACGUUAC the same measures were -3.95 ± 0.3 and -2.9 ± 0.38.
ACUUAGCAAUAUUACGAAGC: where the note is “37 °C”, the “self-splicing fitness (ln)” value was -2.25 ± 0.5.
As to ACUUAGCAAUAUUACGACCC, under “30 °C”, the “self-splicing fitness (ln)” value was found to be 0.555 ± 0.32.
Consider ACUUAGCAAUAUUACGAGUU, for which the “self-splicing fitness (ln)” value by setting is: (30 °C) -2.42 ± 0.12; (37 °C) -0.552 ± 0.14.
Turning to ACUUAGCAAUAUUACGAUAA, the “self-splicing fitness (ln)” value (30 °C) is -2.81 ± 0.27 and the “self-splicing fitness (ln)” value (37 °C) was -0.457 ± 0.3.
For the sequence ACUUAGCAAUAUUACGCACU, the “self-splicing fitness (ln)” value is -0.553 ± 0.093 (30 °C) and 0.532 ± 0.12 (37 °C).
On to ACUUAGCAAUAUUACGCAGC, for which the “self-splicing fitness (ln)” value reads like this: (30 °C) -1.98 ± 0.4; (37 °C) -1.43 ± 0.19.
Take ACUUAGCAAUAUUACGCCCC: the “self-splicing fitness (ln)” value (30 °C) was -0.135 ± 0.33.
With ACUUAGCAAUAUUACGCCCG, the “self-splicing fitness (ln)” value was -1.55 ± 0.17 (30 °C) and 0.138 ± 0.28 (37 °C).
With ACUUAGCAAUAUUACGCGAU, the “self-splicing fitness (ln)” value is -3.66 ± 0.36 (30 °C) and -1.13 ± 0.17 (37 °C).
As to ACUUAGCAAUAUUACGCGCG, the “self-splicing fitness (ln)” value is, setting by setting: (30 °C) -1.56 ± 0.11; (37 °C) -0.437 ± 0.12.
Regarding ACUUAGCAAUAUUACGCGGA, the “self-splicing fitness (ln)” value (30 °C) was -2.36 ± 0.11 and the “self-splicing fitness (ln)” value (37 °C) was -0.613 ± 0.088.
ACUUAGCAAUAUUACGCUAC: the “self-splicing fitness (ln)” value was -2.59 ± 0.34 (30 °C) and -1.9 ± 0.33 (37 °C).
For ACUUAGCAAUAUUACGCUAU the same measures were -3.05 ± 0.24 and -2.09 ± 0.23.
In the case of ACUUAGCAAUAUUACGGAGA, the “self-splicing fitness (ln)” value (30 °C) is -3.19 ± 0.28 and the “self-splicing fitness (ln)” value (37 °C) was -2.07 ± 0.2.
ACUUAGCAAUAUUACGGAGC: the “self-splicing fitness (ln)” value (30 °C) was -3.46 ± 0.3 and the “self-splicing fitness (ln)” value (37 °C) was -0.469 ± 0.18.
With ACUUAGCAAUAUUACGGGGC, the “self-splicing fitness (ln)” value is -3.2 ± 0.18 (30 °C) and -2.55 ± 0.23 (37 °C).
For ACUUAGCAAUAUUACGGUAC, in that order: -3.36 ± 0.21 and -3.57 ± 0.42.
For ACUUAGCAAUAUUACGGUUC, in that order: -2.73 ± 0.16 and -3.35 ± 0.26.
As to ACUUAGCAAUAUUACGUAAU, the “self-splicing fitness (ln)” value (30 °C) was -2.39 ± 0.1 and the “self-splicing fitness (ln)” value (37 °C) is -1.54 ± 0.12.
For ACUUAGCAAUAUUACGUCAA the same measures were -4.05 ± 0.33 and -3.36 ± 0.3.
As to ACUUAGCAAUAUUACGUCUG, the “self-splicing fitness (ln)” value runs as follows: (30 °C) -1.82 ± 0.11; (37 °C) -0.782 ± 0.15.
Turning to ACUUAGCAAUAUUACGUGUA, the “self-splicing fitness (ln)” value is, setting by setting: (30 °C) -2.37 ± 0.11; (37 °C) -1.43 ± 0.095.
ACUUAGCAAUAUUACGUGUC: the “self-splicing fitness (ln)” value (30 °C) is -3.37 ± 0.16 and the “self-splicing fitness (ln)” value (37 °C) was -2.7 ± 0.25.
With ACUUAGCAAUAUUACGUUCG, the “self-splicing fitness (ln)” value (30 °C) was -1.52 ± 0.18 and the “self-splicing fitness (ln)” value (37 °C) was -0.802 ± 0.18.
For ACUUAGCAAUAUUACGUUGA, the “self-splicing fitness (ln)” value was -4.69 ± 0.36 (30 °C) and -2.06 ± 0.12 (37 °C).
For AGAAAGCAAUAUUACGAGAA, in that order: -2.63 ± 0.27 and -1.24 ± 0.25.
Regarding AGAAAGCAAUAUUACGAGAG, the “self-splicing fitness (ln)” value was -3.2 ± 0.16 (30 °C) and -2.44 ± 0.17 (37 °C).
With AGAAAGCAAUAUUACGCCCC, the “self-splicing fitness (ln)” value (30 °C) is -0.22 ± 0.36.
AGAAAGCAAUAUUACGCGGA: the “self-splicing fitness (ln)” value (30 °C) was -2.26 ± 0.13 and the “self-splicing fitness (ln)” value (37 °C) was -0.649 ± 0.13.
AGAAAGCAAUAUUACGCGUC: the “self-splicing fitness (ln)” value is, setting by setting: (30 °C) -1.84 ± 0.12; (37 °C) -1.32 ± 0.15.
For AGAAAGCAAUAUUACGCGUG the same measures were -1.72 ± 0.087 and -0.548 ± 0.093.
For AGAAAGCAAUAUUACGGAAU, in that order: -2.02 ± 0.15 and -1.74 ± 0.2.
As for AGAAAGCAAUAUUACGGACA, the “self-splicing fitness (ln)” value was -0.632 ± 0.2 (30 °C) and -0.869 ± 0.29 (37 °C).
For AGAAAGCAAUAUUACGGCAG the same measures were -0.958 ± 0.095 and -1.28 ± 0.12.
For AGAAAGCAAUAUUACGGCGC, in that order: -0.688 ± 0.12 and -1.01 ± 0.15.
Regarding AGAAAGCAAUAUUACGGGAU, the “self-splicing fitness (ln)” value by setting is: (30 °C) -1.14 ± 0.14; (37 °C) -1.04 ± 0.12.
Regarding AGAAAGCAAUAUUACGGGCC, the “self-splicing fitness (ln)” value runs as follows: (30 °C) -1.66 ± 0.14; (37 °C) -1.04 ± 0.13.
For AGAAAGCAAUAUUACGGUGG, in that order: -3.11 ± 0.18 and -2.32 ± 0.17.
For AGAAAGCAAUAUUACGUAUG the same measures were -2.58 ± 0.12 and -3.05 ± 0.19.
For AGAAAGCAAUAUUACGUGGC the same measures were -3.67 ± 0.3 and -1.14 ± 0.19.
On to AGAAAGCAAUAUUACGUUAC, for which the “self-splicing fitness (ln)” value (30 °C) is -3.26 ± 0.19 and the “self-splicing fitness (ln)” value (37 °C) is -1.89 ± 0.18.
For AGAAAGCAAUAUUACGUUGG, in that order: -3.2 ± 0.2 and -0.323 ± 0.12.
For AGACAGCAAUAUUACGACCG, in that order: -1.4 ± 0.12 and -0.429 ± 0.14.
AGACAGCAAUAUUACGACGA: the “self-splicing fitness (ln)” value by setting is: (30 °C) -1.29 ± 0.13; (37 °C) -0.547 ± 0.12.

The values above are taken from the supplement of paper PMC7877785.
